According to the nanobody polyreactivity screen of Harvey et al. (2022):

Assay: yeast display, Sf9 membrane polyspecificity reagent, FACS + sequencing; frameworks hold sequencing errors
How it was run: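 Sorting gates, low and high (top ~1%), were placed on anti-HA fluorescence to track expression and on streptavidin fluorescence to track reagent binding. A clone's polyreactivity label is taken from the gate it came out of. The reagent was 10% biotinylated, detergent-solubilized Sf9 membrane, applied for 1 hour at 4 °C to galactose-induced yeast display cells.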

Sequence	polyreactivity (PSR sort gate)
QVQLVESGGGLVQAGGSLRLSCAASGGIFYTYAMGWYRQAPGKEREFVAAISRRGSSTYYADSVKGRFTISRDNEKNTVYLQMNSLKPEDTAVYYCAKSYAPYSYANNDYWGQGTQVTVSS	low polyreactivity
QVQLVESGGGLVQAGGSLRLSCAASGGIISTNAMGWYRQAPGKERDLVAAISRRGGSTYYADSVKGRFTISRDYAKNSVYLQMNCLKPEDTAVYYCNKYLRLFSYGRGYDYWGQGTQVTVSS	high polyreactivity
QVQLVESGGGLVQAGGSLRLSCAASGGILDTSAMGWYRQAPGKERELVAAITSGGHTNYADSVKGRFTISRDNAKNTVYLQMNSLKPEDTAVYYCNVVTWYYVFRPWEYDYWGHGTQVTVSS	low polyreactivity
QVQLVESGGGLVQAGGSLRLSCAASGGILPKYAMGWYRQAPGKERELVAAIDGGGDSTYYADSVKGRFTISRDNAKNTVYLQMNSLKPEDTAVFYCAAYQWTGYYLEYDYWGQGTQVTVSS	low polyreactivity
QVQLVESGGGLVQAGGSLRLSCAASGGILSDYAMGWYRQAPWKERELVAAITISGGRTNYADSVKGRFTISRDNAKNTVYLQMNSLKPEDTAVYYCAAGFYPYYYWGQGTQVTVSS	low polyreactivity
QVQLVESGGGLVQAGGSLRLSCAASGGILTKYAMGWYRQAPGKEREFVAAISWRGGTTYYADSVKGRFTISRDNAKNTVYLQMNSLKPEDSAVYYCAADILWYFGQEYDYWGKGTQVTVSS	low polyreactivity
QVQLVESGGGLVQAGGSLRLSCAASGGILVGYALGWYRQAPGKERELVAAITSTGSTYYADSVKGRFTISRDNAKNTVYLQMNSLKPEDTAVYYCNAIGLHRYDYWGQGTQETVSS	low polyreactivity
QVQLVESGGGLVQAGGSLRLSCAASGGILVGYAMGRYRQAPGKERELVAANNYSGGSTNYADSVKGRFTISRDNAKYSVYLQMNSLKPEDTAVYFCAARSTARYGYWGQGTQVTVSS	low polyreactivity
QVQLVESGGGLVQAGGSLRLSCAASGGISHRYAMGWYRQAPGKERELVAAITASGTSTNYADSVKGRFTISRDNAKNTVYLQMNSLKPEDTAVYYCAARYYSFFYPYYYWGQGTQVTVSS	high polyreactivity
QVQLVESGGGLVQAGGSLRLSCAASGGIVDSNAMGWYRQAPGKERELVAAISDSGGSTYYADSVKGRFTISRDNAKNTVYLQMNSLKPEDTAVYYCAADSDYHFVNYRFGMDYWGQGTQVTVSS	low polyreactivity
QVQLVESGGGLVQAGGSLRLSCAASGGIYYSNAMGWYRQAPGKERELVAAISRDGTITYYADSEKGRFTSSRDNAKNTVYLQMNSLKPEDTAVYSCASDPSIPSWYSIYVYWGQGTQVTVSS	high polyreactivity
QVQLVESGGGLVQAGGSLRLSCAASGGMGWYRQAPGKERELVATISSVGSTNYADSVKGRFTISRDNAKNTVYLQMNSLKPEDTAVYYCNANGVQYFLYGYWGQGTQVTVSS	low polyreactivity
QVQLVESGGGLVQAGGSLRLSCAASGGNFGYYAMGWYRQAPGKEREFVAAITLSGGRTYYADSVKGRFTISRDNAKNTVYLQMNSLKPEDTAVYYCAAKGTRRGKERNYWGQGTQVTVSS	high polyreactivity
QVQLVESGGGLVQAGGSLRLSCAASGGNFVSYAMGWYRQAPGKERDLVARINSVDGTNYADSVKGRFTISRDNAKNTVYLQMNSLKPEDTAVYYCATGGYYSAIVYGGYDYWGQGTQVTVSS	low polyreactivity
QVQLVESGGGLVQAGGSLRLSCAASGGSFPDNARGWYRQAPGKERELVAAISFSGSSTYADSVKGRFTISRDNAKKTVNLQMNSLKPEDTAVYYCNTDGYIYRYRFDYWGQGTQVTVSS	low polyreactivity
QVQLVESGGGLVQAGGSLRLSCAASGGTFFSYAMGWYRQAPGKERELVAAISRGGDTTYADSVKGRFTISRDNAKNTVYLQMNSLKPEDTAVYYCAARVPPLLTDSPVFPYDYWGQGTQVTVSS	low polyreactivity

Sequence	polyreactivity (PSR sort gate)
QVQLVESGGGLVQAGGSLRLSCAASGGTFFVYAMGWSRPAPGKERELVAAISGSGGRTYYADSVKGRFTISRDNAKNTVYLQMNSLTPEDTAVYYCNATYLTRSTRLSDFDYWGQGTQVTVSS	high polyreactivity
QVQLVESGGGLVQAGGSLRLSCAASGGTFGAYAMGWYRQAPGKERELVAAISGSGARTYYADSVKGRFTISRDNAKNTVYVQMNSLKPEDTAVYYCAARSTGTRVGEYDYWGQGTQVTVSS	high polyreactivity
QVQLVESGGGLVQAGGSLRLSCAASGGTFGLNAMGWYRQAPGKERELVAAITVTGGSDTYYADSVKGRFTISRDNAKNTVYLQMNSLKPEDTAVYYCAADIGKLYDYWGQGTQVTVSS	low polyreactivity
QVQLVESGGGLVQAGGSLRLSCAASGGTFGPYAMGWYRQAPGKERELVATIRSSGGRTYYADSVKGRFTISRDNAKNTVYFQMNSLKPEDTAVYYCAATEFRYFEGGAYFEGYYWGQGTQVTVSS	low polyreactivity
QVQLVESGGGLVQAGGSLRLSCAASGGTFGPYAMGWYSQAPGKERELVATIRSSGGRTYYADSVTGRFTISRDNAKNTVYFQMNSLKPEDTAVYYCAADNLRQFGEYDYWGQGTQVTVSS	low polyreactivity
QVQLVESGGGLVQAGGSLRLSCAASGGTFGRYTMGWYRQAPGKERELVATITIGGGTNYADSVKGRFTISRDNAKNTVYLQMNSLKPEDTAVYYCARAWRWRCRYYEYGYWGQGTQVTVSS	high polyreactivity
QVQLVESGGGLVQAGGSLRLSCAASGGTFGSNAMGWYRPAPGKERELVAAISTTGGTTYYADSVKGRFTISRDNAKNTVYLQMNSLKPEDPAVYYCAKDGYVYGDWYTYAYDYWGQGTQVTVSS	low polyreactivity
QVQLVESGGGLVQAGGSLRLSCAASGGTFGVNTMGWYSHAPGKERELVAAISNRGVSTYYADSVKGRFTISRDNAKNTVYLQMNSQKPEDTAVYYCASTNSYVYSITLDRYDYWGQGTQVTVSS	low polyreactivity
QVQLVESGGGLVQAGGSLRLSCAASGGTFGVYYAMGRYRQAPGKERELVADISWSAGSTYYADSVKGRFTISRDNAKNTVYLQMNSLKPEDTAVYYCAARYAVYWPWYVREYDYWGQGTQVTVSS	low polyreactivity
QVQLVESGGGLVQAGGSLRLSCAASGGTFGYNVMGWYRQAPGKERELVAAISYSVGGTYYADSVKGRFTISRDNAKNTVYLQMNSLKPEDTEVYYCAATGRRRTYSEYEYWGQGTQVTVSS	high polyreactivity
QVQLVESGGGLVQAGGSLRLSCAASGGTFHKYDMGWYRQAPGKERELVAYADSVKGRFTISRDNAKNTVYLQMNSLKPEDTAVYYCNADWQSYGYLCHSSLYYYWGQGTQVTVSS	low polyreactivity
QVQLVESGGGLVQAGGSLRLSCAASGGTFHRNAMGWYRQAPGKERELVAAITSSGGSTNYADSVKGRFTISRDNAKYTVYLQMNSLKPEETAVYYCATDRYRYTSHPWSRGFDYLGQGTQVTVSS	low polyreactivity
QVQLVESGGGLVQAGGSLRLSCAASGGTFHSNAMGWYRQAPGKERELVASINWSGGSTYYADSVKGRFTISRDNAKNTDYLQMNSLKPEDTAVYYCAARESYPGYGYDHWGQGTQVTVSS	low polyreactivity
QVQLVESGGGLVQAGGSLRLSCAASGGTFHYNAMGWSRQAPGKERELVAAITESGGRTYYADSVKGRFTISRDNAKNTVYLQMNSLKPEDTAVYYCNADQDYDAAYRSDYWGQGTQVTVSS	low polyreactivity
QVQLVESGGGLVQAGGSLRLSCAASGGTFKFYAMGWYRQAPGKERELVAAISWSGTSTYYADSVKGRFTISRDNAKNTVYLQMNSLKPEDTAVYYCAADKRLRGHGYDYWGQGTQVTVSS	high polyreactivity
QVQLVESGGGLVQAGGSLRLSCAASGGTFKLYAMGWYRQAPGKERELVAAISRRGGSTYYADSVKVRFTISRDNAKNTVYLQMNSLKPEDTAVYYCAAPGPTQSTQRGGYWGQGTQVTVSS	high polyreactivity
